Among the data in publication doi:10.1101/2022.02.07.479474 are Kd values, retold here.

Targets include PBRM1 BD4 (UniProt Q86U86 496-637); PBRM1 BD2 (UniProt Q86U86 178-291); PBRM1 BD2 SKY (UniProt Q86U86 178-291, S275A;K277A;Y281A); PBRM1 BD4 KRK (UniProt Q86U86 496-637, K511A;R512A;K513A).
What all share (test): NMR

PBRM1 BD2, sequence (Q86U86 178-291): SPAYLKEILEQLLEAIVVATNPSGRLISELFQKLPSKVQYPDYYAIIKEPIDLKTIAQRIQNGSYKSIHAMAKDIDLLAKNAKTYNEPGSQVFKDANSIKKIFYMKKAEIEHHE
PBRM1 BD2 SKY, sequence (Q86U86 178-291 S275A/K277A/Y281A): as the sequence (Q86U86 178-291) above, with S98A, K100A, Y104A counted along it
PBRM1 BD4 KRK, sequence (Q86U86 496-637 K511A/R512A/K513A): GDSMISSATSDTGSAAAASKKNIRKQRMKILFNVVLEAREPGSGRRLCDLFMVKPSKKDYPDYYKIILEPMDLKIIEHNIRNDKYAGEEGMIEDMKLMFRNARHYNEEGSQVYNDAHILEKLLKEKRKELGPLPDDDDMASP
PBRM1 BD4, sequence (Q86U86 496-637): as the sequence (Q86U86 496-637 K511A/R512A/K513A) above, with A16K, A17R, A18K counted along it

Broadly, the Kd is a measure of binding affinity in units of concentration. A higher Kd goes with weaker binding. Regarding GCGUAGACAGCUGUUCGCAGCUGUCUAUGC (structured_RNA) [dsRNAI], the Kd was determined as 120 ± 20 µM in the series with PBRM1 BD4, 25 ± 8 µM in the series with PBRM1 BD2, 200 ± 70 µM with PBRM1 BD2 SKY and 1020 ± 40 µM in the series with PBRM1 BD4 KRK.
